# Source: patent US5726154A, “Stabilization and oral delivery of calcitonin” (University of Utah Research Foundation, priority 1996, dated 1998)
# What was measured:
# [1] = in water at room temperature; cited from earlier work
# [2] = Reversed-phase HPLC analysis of unaggregated hCT in formulations; type: physicochemical; details: 0.01% acetic acid containing 1.0% SDS; 8 months of storage at ambient temperature
# Protocol: Samples (1-2 ml) containing 0.2-10 mg/ml of hCT in aqueous formulations were prepared and then maintained in 4 ml borosilicate vials at ambient temperature or at 4° C. The samples were checked periodically for the presence of a precipitate, a gel, or turbidity, which are indicative of fibrillation. In cases of formulations in which the hCT was very unstable, changes in turbidity could be followed over time by spectrophotometry at 340 nm. T. Arvinte et al., The structure and mechanism of formation of human calcitonin fibrils, 268 J. Biol. Chem. 6415-22 (1993), hereby incorporated by reference. In some cases, the concentration of unaggregated hCT was determined using reversed-phase HPLC (Waters modular system with Waters model 745 integrator, Bedford, Mass.) on a Vydac C4 column (4.6 mm×25 cm) equilibrated at a flow rate of 1 ml/min with 0.1% (v/v) trifluoroacetic acid containing 30% (v/v) acetonitrile. Five minutes after injection of a 100 μl sample, a linear gradient of 0.67% acetonitrile/min was applied. Absorbance (at 220 nm) of the eluent was recorded and processed to quantify the amount of hCT injected.
# HPLC analysis of hCT in 0.01% acetic acid or in 0.01% acetic acid containing 1.0% SDS was performed to determine the state and concentration of unaggregated hCT in such formulations. […]
# [3] = Stability of hCT upon storage in liquid formulations (precipitate, gel or turbidity indicative of fibrillation); type: physicochemical; details: bile salts (0.5-1.0%: taurocholate, deoxycholate, glycocholate), neutral or acidic pH
# Protocol: As used herein, "stable," "stabilizing," and similar terms refer to inhibiting the precipitation, fibrillation, or gelation of human calcitonin molecules upon storage in a liquid medium at a temperature of about 4°-25° C. Human calcitonin is considered "stable" or "stabilized" in a selected liquid medium when no precipitation, fibrillation, or gellation is detected upon storage at a temperature of about 4°-25° C. for a period of at least about 6 months.
# Since hCT is highly unstable in aqueous solutions of neutral or basic pH, acidic formulations were investigated to determine whether increased stability could be obtained. […]
# Samples (1-2 ml) containing 0.2-10 mg/ml of hCT in aqueous formulations were prepared and then maintained in 4 ml borosilicate vials at ambient temperature or at 4° C. […] In some cases, the concentration of unaggregated hCT was determined using reversed-phase HPLC (Waters modular system with Waters model 745 integrator, Bedford, Mass.) on a Vydac C4 column (4.6 mm×25 cm) equilibrated at a flow rate of 1 ml/min with 0.1% (v/v) trifluoroacetic acid containing 30% (v/v) acetonitrile. […] Absorbance (at 220 nm) of the eluent was recorded and processed to quantify the amount of hCT injected. […]
# [4] = 5 mg/ml hCT in 0.0001%-1.0% acetic acid; could not be duplicated by the applicant; cited from earlier work
compound,measurement,setting,value
"CCCCCCCCCCCCOS(=O)(=O)[O-].[Na+] [SDS, sodium dodecyl sulfate]",Critical micelle concentration (CMC),[1],0.24%
Human calcitonin [hCT],HPLC profiles and UV spectra after storage,[2],not altered
same,Time to gel formation,[3],≤ 1 h
same,Period of stable formulation reported by EP 490549,[4],8 months
